The supplement of paper PMC10567573

B1: ZBTB22 (parent)
chain: RPFDCPVCNKKFKMKHHLTEHMKT

Variants of: B1
Experiment: protein stability index of a GFP-peptide fusion (GPS, HEK-293T) (PSI 1-6); higher = more stable
Conditions: c terminus: a fixed tail appended
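Further: lentivirally expressed fusions sorted by FACS into six bins by GFP to DsRed ratio, PSI derived from sequencing read proportions per bin multiplied by bin number.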

Q: For RPFDCPVCNKKFKMAHHLTEHMKT [K15A], which protein stability index is on record?
A: The protein stability index was 2.03.

Q: Which protein stability index does the source give for RPFDCPVCNKKFKMKHHLTEQMKT [H21Q] here?
A: Its protein stability index is 2.34.

Q: With RPFDCPVCNKKFKMKHHLTEKMKT [H21K] as the variant, how does the protein stability index read?
A: The protein stability index was 2.25.

Q: For RPFDCPVCNKKFKMKHHLTEMMKT [H21M], which protein stability index is on record?
A: The protein stability index was 1.54.

Q: Which protein stability index does the source give for RPFDCPVCNKKFKMKHHLTEVMKT [H21V] here?
A: The protein stability index was 2.44.

Q: With RPFDCPVCNKKFKMKHHLTERMKT [H21R] as the variant, how does the protein stability index read?
A: The protein stability index was 2.25.

Q: With RPFDCPVCNKKFKMKHHLTEWMKT [H21W] as the variant, how does the protein stability index read?
A: Its protein stability index is 2.13.

Q: For RPFDCPVCNKKFKMKHHLTENMKT [H21N], which protein stability index is on record?
A: Its protein stability index is 2.38.

Q: Which protein stability index does the source give for RPFDCPVCNKKFKMKHHLTELMKT [H21L] here?
A: The protein stability index was 1.45.

Q: With RPFDCPVCNKKFKMKHHLTETMKT [H21T] as the variant, how does the protein stability index read?
A: The protein stability index was 2.24.

Q: With RPFDCPVCNKKFKMKHHLTEAMKT [H21A] as the variant, how does the protein stability index read?
A: The protein stability index was 2.74.

Q: With RPFDCPVCNKKFKMKHHLTEYMKT [H21Y] as the variant, how does the protein stability index read?
A: The protein stability index was 2.2.

Q: With RPFDCPVCNKKFKMKHHLTEEMKT [H21E] as the variant, how does the protein stability index read?
A: The protein stability index was 2.88.

Q: With RPFDCPVCNKKFKMKHHLTEGMKT [H21G] as the variant, how does the protein stability index read?
A: Its protein stability index is 2.38.

Q: For RPFDCPVCNKKFKMKHHLTEPMKT [H21P], which protein stability index is on record?
A: The protein stability index was 2.37.

Q: Which protein stability index does the source give for RPFDCPVCNKKFKMKHHLTEDMKT [H21D] here?
A: Its protein stability index is 2.37.

Q: Which protein stability index does the source give for RPFDCPVCNKKFKMKHHLTEIMKT [H21I] here?
A: The protein stability index was 1.84.

Q: For RPFDCPVCNKKFKMKHHLTECMKT [H21C], which protein stability index is on record?
A: Its protein stability index is 3.33.

Q: Which protein stability index does the source give for RPFDCPVCNKKFKMKHHLTEFMKT [H21F] here?
A: Its protein stability index is 2.06.

Q: With RPFDCPVCNKKFKMKHHLTESMKT [H21S] as the variant, how does the protein stability index read?
A: Its protein stability index is 2.52.

Q: With RPFDCPVCNKKFKMKHVLTEHMKT [H17V] as the variant, how does the protein stability index read?
A: The protein stability index was 2.24.

Q: With RPFDCPVCNKKFKMKHSLTEHMKT [H17S] as the variant, how does the protein stability index read?
A: The protein stability index was 2.42.

Q: Which protein stability index does the source give for RPFDCPVCNKKFKMKHMLTEHMKT [H17M] here?
A: The protein stability index was 2.42.

Q: Which protein stability index does the source give for RPFDCPVCNKKFKMKHWLTEHMKT [H17W] here?
A: Its protein stability index is 2.08.

Q: With RPFDCPVCNKKFKMKHQLTEHMKT [H17Q] as the variant, how does the protein stability index read?
A: Its protein stability index is 2.74.

Q: With RPFDCPVCNKKFKMKHELTEHMKT [H17E] as the variant, how does the protein stability index read?
A: The protein stability index was 3.42.

Q: With RPFDCPVCNKKFKMKHFLTEHMKT [H17F] as the variant, how does the protein stability index read?
A: Its protein stability index is 1.73.

Q: For RPFDCPVCNKKFKMKHGLTEHMKT [H17G], which protein stability index is on record?
A: The protein stability index was 1.74.

Q: With RPFDCPVCNKKFKMKHLLTEHMKT [H17L] as the variant, how does the protein stability index read?
A: Its protein stability index is 1.94.

Q: With RPFDCPVCNKKFKMKHKLTEHMKT [H17K] as the variant, how does the protein stability index read?
A: Its protein stability index is 3.1.

Q: With RPFDCPVCNKKFKMKHYLTEHMKT [H17Y] as the variant, how does the protein stability index read?
A: Its protein stability index is 1.95.

Q: With RPFDCPVCNKKFKMKHCLTEHMKT [H17C] as the variant, how does the protein stability index read?
A: The protein stability index was 2.25.

Q: With RPFDCPVCNKKFKMKHRLTEHMKT [H17R] as the variant, how does the protein stability index read?
A: Its protein stability index is 2.18.

Q: Which protein stability index does the source give for RPFDCPVCNKKFKMKHPLTEHMKT [H17P] here?
A: Its protein stability index is 2.19.

Q: With RPFDCPVCNKKFKMKHDLTEHMKT [H17D] as the variant, how does the protein stability index read?
A: The protein stability index was 3.07.

Q: Which protein stability index does the source give for RPFDCPVCNKKFKMKHALTEHMKT [H17A] here?
A: Its protein stability index is 2.17.

Q: For RPFDCPVCNKKFKMKHTLTEHMKT [H17T], which protein stability index is on record?
A: The protein stability index was 2.15.

Q: For RPFDCPVCNKKFKMKHNLTEHMKT [H17N], which protein stability index is on record?
A: The protein stability index was 2.62.

Q: With RPFDCPVCNKKFKMKHILTEHMKT [H17I] as the variant, how does the protein stability index read?
A: Its protein stability index is 1.79.

Q: With RPFDCPVCNKKFKMKHHLTEHMAT [K23A] as the variant, how does the protein stability index read?
A: Its protein stability index is 2.3.

Q: For RPFDCPVCNKKFKMKHHLTEHMDT [K23D], which protein stability index is on record?
A: The protein stability index was 2.61.

Q: Which protein stability index does the source give for RPFDCPVCNKKFKMKHHLTEHMCT [K23C] here?
A: Its protein stability index is 4.19.

Q: Which protein stability index does the source give for RPFDCPVCNKKFKMKYHLTEHMKT [H16Y] here?
A: Its protein stability index is 2.28.

Q: With RPFDCPVCNKKFKMKWHLTEHMKT [H16W] as the variant, how does the protein stability index read?
A: The protein stability index was 2.27.

Q: Which protein stability index does the source give for RPFDCPVCNKKFKMKAHLTEHMKT [H16A] here?
A: Its protein stability index is 2.59.

Q: Which protein stability index does the source give for RPFDCPVCNKKFKMKFHLTEHMKT [H16F] here?
A: Its protein stability index is 1.9.

Q: For RPFDCPVCNKKFKMKRHLTEHMKT [H16R], which protein stability index is on record?
A: Its protein stability index is 2.29.

Q: With RPFDCPVCNKKFKMKEHLTEHMKT [H16E] as the variant, how does the protein stability index read?
A: Its protein stability index is 3.27.

Q: For RPFDCPVCNKKFKMKSHLTEHMKT [H16S], which protein stability index is on record?
A: The protein stability index was 2.83.

Q: Which protein stability index does the source give for RPFDCPVCNKKFKMKLHLTEHMKT [H16L] here?
A: The protein stability index was 2.56.

Q: Which protein stability index does the source give for RPFDCPVCNKKFKMKTHLTEHMKT [H16T] here?
A: The protein stability index was 2.39.

Q: With RPFDCPVCNKKFKMKCHLTEHMKT [H16C] as the variant, how does the protein stability index read?
A: Its protein stability index is 2.91.

Q: Which protein stability index does the source give for RPFDCPVCNKKFKMKGHLTEHMKT [H16G] here?
A: The protein stability index was 2.11.

Q: For RPFDCPVCNKKFKMKMHLTEHMKT [H16M], which protein stability index is on record?
A: The protein stability index was 2.71.

Q: With RPFDCPVCNKKFKMKKHLTEHMKT [H16K] as the variant, how does the protein stability index read?
A: Its protein stability index is 2.55.

Q: For RPFDCPVCNKKFKMKIHLTEHMKT [H16I], which protein stability index is on record?
A: The protein stability index was 2.08.

Q: With RPFDCPVCNKKFKMKNHLTEHMKT [H16N] as the variant, how does the protein stability index read?
A: Its protein stability index is 2.71.

Q: For RPFDCPVCNKKFKMKPHLTEHMKT [H16P], which protein stability index is on record?
A: Its protein stability index is 2.25.

Q: With RPFDCPVCNKKFKMKQHLTEHMKT [H16Q] as the variant, how does the protein stability index read?
A: Its protein stability index is 2.7.

Q: For RPFDCPVCNKKFKMKDHLTEHMKT [H16D], which protein stability index is on record?
A: Its protein stability index is 2.56.

Q: Which protein stability index does the source give for RPFDCPVCNKKFKMKVHLTEHMKT [H16V] here?
A: The protein stability index was 2.08.

Q: With RPFDCPVCNKKFYMKHHLTEHMKT [K13Y] as the variant, how does the protein stability index read?
A: Its protein stability index is 2.72.

Q: For RPFDCPVCNKKFVMKHHLTEHMKT [K13V], which protein stability index is on record?
A: The protein stability index was 2.9.

Q: Which protein stability index does the source give for RPFDCPVCNKKFHMKHHLTEHMKT [K13H] here?
A: Its protein stability index is 2.65.

Q: For RPFDCPVCNKKFTMKHHLTEHMKT [K13T], which protein stability index is on record?
A: Its protein stability index is 3.12.

Q: With RPFDCPVCNKKFWMKHHLTEHMKT [K13W] as the variant, how does the protein stability index read?
A: The protein stability index was 2.58.

Q: With RPFDCPVCNKKFRMKHHLTEHMKT [K13R] as the variant, how does the protein stability index read?
A: The protein stability index was 2.33.

Q: Which protein stability index does the source give for RPFDCPVCNKKFIMKHHLTEHMKT [K13I] here?
A: The protein stability index was 2.14.

Q: Which protein stability index does the source give for RPFDCPVCNKKFLMKHHLTEHMKT [K13L] here?
A: The protein stability index was 2.89.

Q: With RPFDCPVCNKKFQMKHHLTEHMKT [K13Q] as the variant, how does the protein stability index read?
A: The protein stability index was 3.12.

Q: With RPFDCPVCNKKFMMKHHLTEHMKT [K13M] as the variant, how does the protein stability index read?
A: Its protein stability index is 2.27.

Q: Which protein stability index does the source give for RPFDCPVCNKKFGMKHHLTEHMKT [K13G] here?
A: Its protein stability index is 2.6.

Q: With RPFDCPVCNKKFNMKHHLTEHMKT [K13N] as the variant, how does the protein stability index read?
A: Its protein stability index is 2.29.

Q: With RPFDCPVCNKKFPMKHHLTEHMKT [K13P] as the variant, how does the protein stability index read?
A: Its protein stability index is 2.74.

Q: For RPFDCPVCNKKFSMKHHLTEHMKT [K13S], which protein stability index is on record?
A: The protein stability index was 2.91.

Q: For RPFDCPVCNKKFKMKHHLTCHMKT [E20C], which protein stability index is on record?
A: Its protein stability index is 2.83.

Q: For RPFDCPVCNKKFKMKHHLTIHMKT [E20I], which protein stability index is on record?
A: The protein stability index was 2.21.

Q: For RPFDCPVCNKKFKMKHHLTRHMKT [E20R], which protein stability index is on record?
A: The protein stability index was 3.45.

Q: For RPFDCPVCNKKFKMKHHLTDHMKT [E20D], which protein stability index is on record?
A: Its protein stability index is 2.99.

Q: Which protein stability index does the source give for RPFDCPVCNKKFKMKHHLTLHMKT [E20L] here?
A: The protein stability index was 1.83.

Q: Which protein stability index does the source give for RPFDCPVCNKKFKMKHHLTPHMKT [E20P] here?
A: The protein stability index was 2.11.

Q: For RPFDCPVCNKKFKMKHHLTHHMKT [E20H], which protein stability index is on record?
A: The protein stability index was 2.44.

Q: With RPFDCPVCNKKFKMKHHLTAHMKT [E20A] as the variant, how does the protein stability index read?
A: The protein stability index was 2.78.

Q: Which protein stability index does the source give for RPFDCPVCNKKFKMKHHLTTHMKT [E20T] here?
A: The protein stability index was 2.31.

Q: For RPFDCPVCNKKFKMKHHLTGHMKT [E20G], which protein stability index is on record?
A: Its protein stability index is 2.73.

Q: Which protein stability index does the source give for RPFDCPVCNKKFKMKHHLTNHMKT [E20N] here?
A: Its protein stability index is 3.

Q: For RPFDCPVCNKKFKMKHHLTKHMKT [E20K], which protein stability index is on record?
A: Its protein stability index is 3.1.

Q: With RPFDCPVCNKKFKMKHHLTQHMKT [E20Q] as the variant, how does the protein stability index read?
A: Its protein stability index is 2.8.

Q: With RPFDCPVCNKKFKMKHHLTWHMKT [E20W] as the variant, how does the protein stability index read?
A: Its protein stability index is 2.08.

Q: Which protein stability index does the source give for RPFDCPVCNKKFKMKHHLTYHMKT [E20Y] here?
A: The protein stability index was 1.85.

Q: With RPFDCPVCNKKFKMKHHLTFHMKT [E20F] as the variant, how does the protein stability index read?
A: The protein stability index was 2.21.

Q: For RPFDCPVCNKKFKMKHHLTSHMKT [E20S], which protein stability index is on record?
A: Its protein stability index is 1.93.

Q: With RPFDCPVCNKKFKMKHHLTMHMKT [E20M] as the variant, how does the protein stability index read?
A: The protein stability index was 2.62.

Q: With RPFDCPVCNKKFKMKHHLTVHMKT [E20V] as the variant, how does the protein stability index read?
A: The protein stability index was 2.36.
